{
  "source": "paper PMC12416549",
  "about": "(2024)",
  "data": [
    {"biological_target": "T1, TNFR1 (Homo sapiens, UniProt P19438)", "T1 chain": "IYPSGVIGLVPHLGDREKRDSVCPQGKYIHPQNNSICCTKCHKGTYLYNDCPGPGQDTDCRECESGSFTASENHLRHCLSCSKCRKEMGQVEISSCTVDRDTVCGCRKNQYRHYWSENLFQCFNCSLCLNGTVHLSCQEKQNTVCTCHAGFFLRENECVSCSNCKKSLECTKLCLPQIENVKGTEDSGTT", "assay": "yeast display SC50", "units": {"apparent Kd (screen)": "nM"}, "values": [
      {"binder": "K8A (designed binder) SMEEEVEAAAKEYEKKKKEAIEKHLEKLKAKDKEAAERFLKELEEAAKEYAKDEAKTMSEEEAKRRAKKYKEKVLLSELSEEEQKEIKEAEEKLVRTILKYVEEAAK", "apparent Kd (screen)": 0.593},
      {"binder": "K29A (designed binder) SMEEEVEKAAKEYEKKKKEAIEKHLEKLAAKDKEAAERFLKELEEAAKEYAKDEAKTMSEEEAKRRAKKYKEKVLLSELSEEEQKEIKEAEEKLVRTILKYVEEAAK", "apparent Kd (screen)": 0.446},
      {"binder": "E83V (designed binder) SMEEEVEKAAKEYEKKKKEAIEKHLEKLKAKDKEAAERFLKELEEAAKEYAKDEAKTMSEEEAKRRAKKYKEKVLLSELSEEVQKEIKEAEEKLVRTILKYVEEAAK", "apparent Kd (screen)": 0.446},
      {"binder": "Y101H (designed binder) SMEEEVEKAAKEYEKKKKEAIEKHLEKLKAKDKEAAERFLKELEEAAKEYAKDEAKTMSEEEAKRRAKKYKEKVLLSELSEEEQKEIKEAEEKLVRTILKHVEEAAK", "apparent Kd (screen)": 0.49},
      {"binder": "K93T (designed binder) SMEEEVEKAAKEYEKKKKEAIEKHLEKLKAKDKEAAERFLKELEEAAKEYAKDEAKTMSEEEAKRRAKKYKEKVLLSELSEEEQKEIKEAEETLVRTILKYVEEAAK", "apparent Kd (screen)": 0.869},
      {"binder": "K33S (designed binder) SMEEEVEKAAKEYEKKKKEAIEKHLEKLKAKDSEAAERFLKELEEAAKEYAKDEAKTMSEEEAKRRAKKYKEKVLLSELSEEEQKEIKEAEEKLVRTILKYVEEAAK", "apparent Kd (screen)": 0.869},
      {"binder": "A47W (designed binder) SMEEEVEKAAKEYEKKKKEAIEKHLEKLKAKDKEAAERFLKELEEAWKEYAKDEAKTMSEEEAKRRAKKYKEKVLLSELSEEEQKEIKEAEEKLVRTILKYVEEAAK", "apparent Kd (screen)": 3},
      {"binder": "E45Y (designed binder) SMEEEVEKAAKEYEKKKKEAIEKHLEKLKAKDKEAAERFLKELEYAAKEYAKDEAKTMSEEEAKRRAKKYKEKVLLSELSEEEQKEIKEAEEKLVRTILKYVEEAAK", "apparent Kd (screen)": 2.73},
      {"binder": "D32S (designed binder) SMEEEVEKAAKEYEKKKKEAIEKHLEKLKAKSKEAAERFLKELEEAAKEYAKDEAKTMSEEEAKRRAKKYKEKVLLSELSEEEQKEIKEAEEKLVRTILKYVEEAAK", "apparent Kd (screen)": 0.446},
      {"binder": "K100T (designed binder) SMEEEVEKAAKEYEKKKKEAIEKHLEKLKAKDKEAAERFLKELEEAAKEYAKDEAKTMSEEEAKRRAKKYKEKVLLSELSEEEQKEIKEAEEKLVRTILTYVEEAAK", "apparent Kd (screen)": 0.869},
      {"binder": "A30K (designed binder) SMEEEVEKAAKEYEKKKKEAIEKHLEKLKKKDKEAAERFLKELEEAAKEYAKDEAKTMSEEEAKRRAKKYKEKVLLSELSEEEQKEIKEAEEKLVRTILKYVEEAAK", "apparent Kd (screen)": 0.956},
      {"binder": "E54P (designed binder) SMEEEVEKAAKEYEKKKKEAIEKHLEKLKAKDKEAAERFLKELEEAAKEYAKDPAKTMSEEEAKRRAKKYKEKVLLSELSEEEQKEIKEAEEKLVRTILKYVEEAAK", "apparent Kd (screen)": 7.07},
      {"binder": "Q84W (designed binder) SMEEEVEKAAKEYEKKKKEAIEKHLEKLKAKDKEAAERFLKELEEAAKEYAKDEAKTMSEEEAKRRAKKYKEKVLLSELSEEEWKEIKEAEEKLVRTILKYVEEAAK", "apparent Kd (screen)": 12.5},
      {"binder": "E12I (designed binder) SMEEEVEKAAKIYEKKKKEAIEKHLEKLKAKDKEAAERFLKELEEAAKEYAKDEAKTMSEEEAKRRAKKYKEKVLLSELSEEEQKEIKEAEEKLVRTILKYVEEAAK", "apparent Kd (screen)": 1.05},
      {"binder": "E19M (designed binder) SMEEEVEKAAKEYEKKKKMAIEKHLEKLKAKDKEAAERFLKELEEAAKEYAKDEAKTMSEEEAKRRAKKYKEKVLLSELSEEEQKEIKEAEEKLVRTILKYVEEAAK", "apparent Kd (screen)": 0.446},
      {"binder": "K52T (designed binder) SMEEEVEKAAKEYEKKKKEAIEKHLEKLKAKDKEAAERFLKELEEAAKEYATDEAKTMSEEEAKRRAKKYKEKVLLSELSEEEQKEIKEAEEKLVRTILKYVEEAAK", "apparent Kd (screen)": 0.446},
      {"binder": "K85S (designed binder) SMEEEVEKAAKEYEKKKKEAIEKHLEKLKAKDKEAAERFLKELEEAAKEYAKDEAKTMSEEEAKRRAKKYKEKVLLSELSEEEQSEIKEAEEKLVRTILKYVEEAAK", "apparent Kd (screen)": 0.593},
      {"binder": "K107I (designed binder) SMEEEVEKAAKEYEKKKKEAIEKHLEKLKAKDKEAAERFLKELEEAAKEYAKDEAKTMSEEEAKRRAKKYKEKVLLSELSEEEQKEIKEAEEKLVRTILKYVEEAAI", "apparent Kd (screen)": 1.86},
      {"binder": "K107L (designed binder) SMEEEVEKAAKEYEKKKKEAIEKHLEKLKAKDKEAAERFLKELEEAAKEYAKDEAKTMSEEEAKRRAKKYKEKVLLSELSEEEQKEIKEAEEKLVRTILKYVEEAAL", "apparent Kd (screen)": 2.73},
      {"binder": "Y70A (designed binder) SMEEEVEKAAKEYEKKKKEAIEKHLEKLKAKDKEAAERFLKELEEAAKEYAKDEAKTMSEEEAKRRAKKAKEKVLLSELSEEEQKEIKEAEEKLVRTILKYVEEAAK", "apparent Kd (screen)": 4.83},
      {"binder": "E37Q (designed binder) SMEEEVEKAAKEYEKKKKEAIEKHLEKLKAKDKEAAQRFLKELEEAAKEYAKDEAKTMSEEEAKRRAKKYKEKVLLSELSEEEQKEIKEAEEKLVRTILKYVEEAAK", "apparent Kd (screen)": 0.539},
      {"binder": "K52F (designed binder) SMEEEVEKAAKEYEKKKKEAIEKHLEKLKAKDKEAAERFLKELEEAAKEYAFDEAKTMSEEEAKRRAKKYKEKVLLSELSEEEQKEIKEAEEKLVRTILKYVEEAAK", "apparent Kd (screen)": 1.05},
      {"binder": "A20Q (designed binder) SMEEEVEKAAKEYEKKKKEQIEKHLEKLKAKDKEAAERFLKELEEAAKEYAKDEAKTMSEEEAKRRAKKYKEKVLLSELSEEEQKEIKEAEEKLVRTILKYVEEAAK", "apparent Kd (screen)": 1.69},
      {"binder": "K48T (designed binder) SMEEEVEKAAKEYEKKKKEAIEKHLEKLKAKDKEAAERFLKELEEAATEYAKDEAKTMSEEEAKRRAKKYKEKVLLSELSEEEQKEIKEAEEKLVRTILKYVEEAAK", "apparent Kd (screen)": 0.49},
      {"binder": "A10L (designed binder) SMEEEVEKALKEYEKKKKEAIEKHLEKLKAKDKEAAERFLKELEEAAKEYAKDEAKTMSEEEAKRRAKKYKEKVLLSELSEEEQKEIKEAEEKLVRTILKYVEEAAK", "apparent Kd (screen)": 0.956},
      {"binder": "A47I (designed binder) SMEEEVEKAAKEYEKKKKEAIEKHLEKLKAKDKEAAERFLKELEEAIKEYAKDEAKTMSEEEAKRRAKKYKEKVLLSELSEEEQKEIKEAEEKLVRTILKYVEEAAK", "apparent Kd (screen)": 0.49},
      {"binder": "K68Q (designed binder) SMEEEVEKAAKEYEKKKKEAIEKHLEKLKAKDKEAAERFLKELEEAAKEYAKDEAKTMSEEEAKRRAQKYKEKVLLSELSEEEQKEIKEAEEKLVRTILKYVEEAAK", "apparent Kd (screen)": 0.653},
      {"binder": "A9P (designed binder) SMEEEVEKPAKEYEKKKKEAIEKHLEKLKAKDKEAAERFLKELEEAAKEYAKDEAKTMSEEEAKRRAKKYKEKVLLSELSEEEQKEIKEAEEKLVRTILKYVEEAAK", "apparent Kd (screen)": 13.8},
      {"binder": "A63N (designed binder) SMEEEVEKAAKEYEKKKKEAIEKHLEKLKAKDKEAAERFLKELEEAAKEYAKDEAKTMSEEENKRRAKKYKEKVLLSELSEEEQKEIKEAEEKLVRTILKYVEEAAK", "apparent Kd (screen)": 6.43},
      {"binder": "K18V (designed binder) SMEEEVEKAAKEYEKKKVEAIEKHLEKLKAKDKEAAERFLKELEEAAKEYAKDEAKTMSEEEAKRRAKKYKEKVLLSELSEEEQKEIKEAEEKLVRTILKYVEEAAK", "apparent Kd (screen)": 1.27},
      {"binder": "Q84Y (designed binder) SMEEEVEKAAKEYEKKKKEAIEKHLEKLKAKDKEAAERFLKELEEAAKEYAKDEAKTMSEEEAKRRAKKYKEKVLLSELSEEEYKEIKEAEEKLVRTILKYVEEAAK", "apparent Kd (screen)": 13.8},
      {"binder": "K73V (designed binder) SMEEEVEKAAKEYEKKKKEAIEKHLEKLKAKDKEAAERFLKELEEAAKEYAKDEAKTMSEEEAKRRAKKYKEVVLLSELSEEEQKEIKEAEEKLVRTILKYVEEAAK", "apparent Kd (screen)": 10.4},
      {"binder": "E7G (designed binder) SMEEEVGKAAKEYEKKKKEAIEKHLEKLKAKDKEAAERFLKELEEAAKEYAKDEAKTMSEEEAKRRAKKYKEKVLLSELSEEEQKEIKEAEEKLVRTILKYVEEAAK", "apparent Kd (screen)": 3}
    ]}
  ]
}
